Results from patent US9573983B2, “Compositions including I-domain antigen conjugate compounds and methods for treatment of autoimmune disorders” (University of Kansas, priority 2012, dated 2017).
Where “and” joins values, the source holds several entries; their conditions need not be identical. Equal values may be shown once.

What was measured:
[1] = Hydrolysis of maleimide groups upon storage; type: physicochemical; settings: storage after SEC purification; to be used within 48 h
EAE mouse model = experiment: Suppression of EAE, prophylactic and vaccine-like treatment (Example 2); type: in vivo, SJL/J female mice; settings: for suppression of progress of EAE (clinical score, change in body weight, incidence of disease) / onset of disease: two i.v. injections, 26 nmol/injection, days 4 and 7; for onset of disease: I-domain controls; for onset of disease (clinical scores): IDAC molecules; for body weight change: p<0.05, days 12-24; for change in body weight: p<0.005, days 12-24
Description: Six-to-eight week old SJL/J female mice were immunized subcutaneously with 200 μg PLP139-151 peptide in a 0.2 ml emulsion consisting of equal volumes of PBS and complete Freund's adjuvant (CFA) containing killed mycobacterium tuberculosis strain H37RA at a final concentration of 4 mg/ml (Difco, Detroit, Mich.). The PLP/CFA emulsion was administered to regions above the shoulder and the flanks (total of 4 sites, 50 μl at each injection site). In addition, 200 ng of pertussis toxin was injected intraperitoneally on the day of immunization (day 0) and 2 days post-immunization.
The mice then received either intravenous or subcutaneous injections of IDAC (10 or 26 nmol/injection) or peptides (100 nmol/injection for Ac-PLP-BPI-NH2-2 or 50 nmol/injection/mouse for Ac-PLP-cIBR1-NH2). The prophylactic disease suppression was carried out with subcutaneous or intravenous injections of IDAC molecules on days 4 and 7, or BPI molecules on days 4, 7, and 10. Mice receiving vaccine-like treatment were given subcutaneous injections of IDAC and BPI molecules at 11, 8, and 5 days prior to the induction of disease. As negative controls, mice were treated with PBS, 1-domain, and GMB-I-domain. Disease progression was evaluated by monitoring the change in weight of the mice and clinical scoring based on the severity of nerve damage ranging from 0 to 5: 0—no clinical symptoms of disease; 1—tail weakness or limp tail; 2—paraparesis (weakness or partial paralysis of one or two hind limbs); 3—paraplegia (complete paralysis of two hind limbs); 4—paraplegia with forelimb weakness or paralysis; 5—moribund (at this point, the affected mice were euthanized).
(§1) Statistical differences among the groups in clinical disease scores were determined by calculating the average score for each mouse from day 12 to day 17 by one-way analysis of variance followed by Fisher's least significant difference. Statistical differences in body weight among groups were also analyzed in the same fashion, but from day 12 to day 24. Comparison of cytokine concentrations was also performed by one-way analysis of variance. All analyses were performed using StatView (SAS Institute, Cary, N.C.).

mouse EAE model = experiment: Suppression of EAE in PLP139-151/CFA-immunized mice (Example 1); type: in vivo, female inbred SJL/J mice
Description: Female inbred SJL/J mice, 5-7 weeks old, were randomly divided into different groups. All mice were immunized with PLP139-151 in Freund's complete adjuvant (CFA) to induce EAE, as reported previously (3, 4). The PLP/CFA emulsion (50 μL per site) was administered to four separate regions above the shoulder and on the flanks. In addition, 200 ng of pertussis toxin (List Biological Laboratories Inc., Campbell, Calif.) was injected intraperitoneally on day 0 and 2.
After disease stimulation, one group of mice received intravenous (i.v.) injections of 26 nmol/injection/day of the conjugate IDAC on days 4 and 7. The second and third groups of mice received i.v. injections of 100 nmol/injection/day of Ac-PLP-BPI-NH2-2 and 100 microliter of PBS, respectively, on days 4, 7, and 10. The animals were weighed and observed daily. Disease progression was evaluated observed using a blinded method as reported previously (3, 4). The clinical scores were rated using the following scale: 0—no clinical signs of disease; 1—tail weakness or limp tail; 2—paraparesis (weakness or incomplete paralysis of one or two hind limbs); 3—paraplegia (complete paralysis of two hind limbs); 4—paraplegia with forelimb weakness or paralysis; and 5—moribund or dead.
Statistical differences among the groups in clinical disease scores were determined by calculating the average score for each mouse from the day of disease onset to day 20 by One-way Analysis of Variance followed by Fisher's least significant difference using StatView (SAS Institute, Cary, N.C.). Statistical differences among the groups in body weight were also analyzed in the same way. The presence of significant difference is denoted with p-values of <0.05 or <0.001.

splenocytes = experiment: Cytokine levels in vitro from splenocytes of treated EAE mice (Q-Plex ELISA); type: cell-based, female SJL/J (H-2^s) mice; settings: IDAC-3 26 nmol/injection s.c. days 4 and 7
Description: Representative spleens for each group (IDAC-3 or PBS) from Study 2 were harvested from female SJL/J (H-2^s) mice on days 13 and 35. Splenocytes were dispersed by gently smashing the spleen using the coarse portion of a 1 ml syringe in a petri dish containing RPMI 1640 medium (10% FBS, […]). The cells were then filtered through a 40 micrometer strainer. After centrifugation, the red blood cells were lysed using “ACK lysis buffer,” and the remaining white blood cells were washed three times with medium. Splenocytes (5×10^6 cells/ml) were cultured in parallel in the presence of 20 μM PLP and blank RPMI medium. Supernatants were collected at a 72 h time-point for the measurement of cytokine levels. The samples were then analyzed using a fully quantitative ELISA-based Q-Plex™ Mouse Cytokine-Screen (Quansys Biosciences, Logan, Utah).
as §1

[2] = i.v. 26 nmol/injection days 4 and 7, vs PBS
[3] = i.v. 26 nmol/injection days 4 and 7, vs PBS, p<0.0005, days 12-17
[4] = 3 injections, vaccine-like s.c.
[5] = s.c. 26 nmol/injection days 4 and 7, vs PBS
[6] = vaccine-like s.c. 10 nmol on days -11, -8, -5

B1: [N-(γ-maleimido)-1-oxybutyl]n-I-domain (protein, listed as Homo sapiens)
chain: MGNVDLVFLFDGSMSLQPDEFQKILDFMKDVMKKLSNTSYQFAAVQFSTSYKTEFDFSDYVKRKDPDALLKHVKHMLLLTNTFGAINYVATEVFREELGARPDATKVLIIITDGEATDSGNIDAAKDIIRYIIGIGKHFQTKESQETLHKFASKPASEFVKILDTFEKLKDLFTELQKKIY
modifications: GMBS maleimide-modified lysines
notes: I-domain with lysine amino groups modified by GMBS to carry maleimide groups; negative control and intermediate
With B1 the “formation of maleimide hydrolysis products (stability)” value [1] was “increased upon storage”, the “suppression of progress of EAE (clinical score, change in body weight, incidence of disease)” value (EAE mouse model; vs PBS) was “neither the I-domain nor GMB-I-domain significantly suppressed the progress of EAE” and the onset of disease (EAE mouse model; vs PBS) was “slight delay in the onset of the disease”.

B2: (HSLGKWLGHPDKFC)n-linker-I-domain (conjugate, listed as Homo sapiens)
chain 1: HSLGKWLGHPDKFC
chain 2: B1 chain
modifications: maleimide linker conjugation, ~2.5 peptides; Chemically synthesized signal 1 moiety peptide with amino acids 139-151 of PLP protein modified with a terminal cysteine
notes: PLP-Cys-OH peptides conjugated via maleimide linkers to lysine residues of LFA-1 I-domain; average 2.5 peptides per I-domain
With B2 the “clinical disease scores (suppression of EAE)” value (mouse EAE model; i.v., IDAC 26 nmol/injection days 4, 7, Ac-PLP-BPI-NH2-2 100 nmol/injection days 4, 7, 10, vs PBS, p<0.0001, days 12-17) was “significant efficacy to suppress the progress of EAE”, the incidence of disease (mouse EAE model; i.v., IDAC 26 nmol/injection days 4, 7, Ac-PLP-BPI-NH2-2 100 nmol/injection days 4, 7, 10, vs PBS, p<0.0001, days 12-24) was “delayed” and the “change in body weight” value (mouse EAE model; i.v., IDAC 26 nmol/injection days 4, 7, vs PBS) was “prevent the changes of bodyweights of the mice significantly”. For the same molecule, the “efficacy compared with the BPI molecule” value (mouse EAE model; two i.v. injections of 26 nmol IDAC vs three of 100 nmol Ac-PLP-BPI-NH2-2) was “appeared less than that of the BPI molecule”, the disease incidence (EAE mouse model; [2]) was “delays in disease incidence” and the “onset of disease (clinical scores)” value (EAE mouse model; [2]) was “delayed the onset of disease”. The “clinical scores (suppression of EAE)” value (EAE mouse model; [3]) was “significantly better at suppressing EAE than PBS” and the body weight change (EAE mouse model; [2]) was “significantly more effective than PBS in suppressing disease”.

B3: (Ac-HSLGKWLGHPDKFC-NH2)n-linker-I-domain (conjugate, listed as Homo sapiens)
chain 1: HSLGKWLGHPDKFC
chain 2: B1 chain
modifications: Ac, NH2 caps; maleimide linker; Chemically synthesized signal 1 moiety peptide with amino acids 139-151 of PLP protein modified with a terminal cysteine
notes: Ac-PLP-Cys-NH2 (capped) peptides conjugated via maleimide linkers to lysine residues of I-domain
In the case of B3, the “IL-5 level compared to PBS-treated group” value (splenocytes; day 13) is reported as “no significant difference”, the IL-10 level (splenocytes; day 13) is reported as “could not be detected” and the “IL-2 level, PBS-treated vs IDAC-3-treated group” value (splenocytes; day 13, p<0.05) is reported as “IL-2 cytokine levels were higher than in the IDAC-3-treated group”. The “IL-2 level, PBS-treated vs IDAC-3-treated group” value (splenocytes; day 35) was “no significant difference”, the “IL-17 level compared to PBS-treated group” value (splenocytes; day 35, p<0.0001) was “fourfold lower” and the “IL-5 level compared to PBS-treated group” value (splenocytes; day 35, p<0.0005) was “significantly higher”. For the same molecule, the “IL-12 level compared to PBS-treated group” value (splenocytes; day 35, p<0.005) was “significantly lower”, the “IL-10 level compared to PBS group” value (splenocytes; day 35, p<0.05) was “significantly higher levels” and the “maximum toxic concentration (estimated therapeutic window)” value (EAE mouse model; [4]) was 26 nmol. The “minimum effective concentration (estimated therapeutic window)” value (EAE mouse model; [4]) was 10 nmol, the “clinical scores, IDAC-3 compared with IDAC-1” value (EAE mouse model; i.v. 26 nmol/injection days 4 and 7, p<0.005, days 12-17) was “better than IDAC-1 in suppressing EAE” and the disease incidence (EAE mouse model; [2]) was “delays in disease incidence”. For the same molecule, the “onset of disease (clinical scores)” value (EAE mouse model; [2]) was “delayed the onset of disease”, the “clinical scores (suppression of EAE)” value (EAE mouse model; [3]) was “significantly better at suppressing EAE than PBS” and the body weight change (EAE mouse model; [2]) was “significantly more effective than PBS in suppressing disease”. For the same molecule, the disease incidence (EAE mouse model; [5]) was “significantly more efficacious than PBS in suppressing EAE”, the “clinical scores (suppression of EAE)” value (EAE mouse model; s.c. 26 nmol/injection days 4 and 7, vs PBS, p<0.005, days 12-17) was “significantly more efficacious than PBS in suppressing EAE” and the “change in body weight” value (EAE mouse model; [5]) was “significantly more efficacious than PBS in suppressing EAE”. For the same molecule, the anaphylaxis (EAE mouse model; [6]) was “did not result in anaphylaxis”, the “efficacy of low dose compared with 26 nmol dose” value (EAE mouse model; [6]) was “not as effective as the 26 nmol dose” and the “efficacy of high dose compared with other groups” value (EAE mouse model; vaccine-like s.c. 26 nmol/injection days -11, -8, -5, four animals, no statistical analysis) was “seemed to be better than the lower dose (10 nmol/injection) group and similar to the Ac-PLP-BPI-NH2-2-treated group”. The “toxic effect / adverse events (mice affected)” value (EAE mouse model; vaccine-like s.c. 26 nmol/injection, third injection (day -5)) was “two of six mice and 2 of the 6 mice”, the “potency compared with Ac-PLP-BPI-NH2-2” value (EAE mouse model; vaccine-like s.c. days -11, -8, -5, IDAC-3 10 nmol/injection vs Ac-PLP-BPI-NH2-2 100 nmol/injection) was “less potent than Ac-PLP-BPI-NH2-2” and the “clinical scores (suppression of EAE)” value (EAE mouse model; vaccine-like s.c. days -11, -8, -5, IDAC-3 10 nmol/injection, Ac-PLP-BPI-NH2-2 100 nmol/injection, vs PBS, p<0.005, days 12-17) was “significantly better clinical scores”. For the same molecule, the “change in body weight” value (EAE mouse model; vaccine-like s.c. days -11, -8, -5, IDAC-3 10 nmol/injection, Ac-PLP-BPI-NH2-2 100 nmol/injection, vs PBS) was “significantly better”, the “onset of disease (incidence of disease)” value (EAE mouse model; vaccine-like s.c., IDAC-3 26 nmol/injection days -11, -8, Ac-PLP-BPI-NH2-2 100 nmol/injection days -11, -8, -5) was “Delay in the onset of disease” and the “relapse of disease (long-term effect)” value (EAE mouse model; vaccine-like s.c., IDAC-3 26 nmol/injection days -11, -8, Ac-PLP-BPI-NH2-2 100 nmol/injection days -11, -8, -5, days 45-55) was “long-term effect in suppressing relapse of the disease”. For the same molecule, the “clinical scores (suppression of EAE)” value (EAE mouse model; vaccine-like s.c., IDAC-3 26 nmol/injection days -11, -8, vs PBS, p<0.0001, days 12-17 and 45-55) was “suppressed EAE significantly better than PBS” and the “change of body weight” value (EAE mouse model; vaccine-like s.c., IDAC-3 26 nmol/injection days -11, -8, vs PBS, p<0.0001, days 12-24) was “suppressed EAE significantly better than PBS”.

B4: I-domain: LFA-1 I-domain protein, SEQ ID NO: 1; negative control and carrier protein (protein, listed as Homo sapiens)
chain: B1 chain
With B4 the “suppression of progress of EAE (clinical score, change in body weight, incidence of disease)” value (EAE mouse model; vs PBS) was “neither the I-domain nor GMB-I-domain significantly suppressed the progress of EAE” and the onset of disease (EAE mouse model; vs PBS) was “slight delay in the onset of the disease”.
